{"source": "paper PMC11091055", "about": "(2024)", "binders": {"B1": {"name": "nanobody N235, His-tagged (VHH)", "VHH": "QVQLQESGGGLVQPGGSLRLSCAASGLIISRYDMSWYRQAPGKERELVATTPIPAARPQYADSVKGRFTISRDNAKNTVSLQMNSLKPEDTAVYYCNLGPESQDHNYNYWGQGTQVTVSS"}}, "target": "SARS-CoV-2 prototype (PT) S NTD, human Fc-tagged (SARS-CoV-2)", "assay": "SPR", "data": [{"binder": "B1", "values": [{"measurement": "koff", "value": 0.00024, "unit": "s⁻¹"}]}]}
